This is an account of results in patent publication US20140221623A1 (Ablynx, published 2014).

What is called koff is the first-order rate constant of dissociation. As usually defined, the Kd is the equilibrium constant for the complex coming apart. Read a high Kd as weaker binding. By kon is commonly meant a measure of how fast the partners come together. A low value points to slower complex formation.

The target of test [1] is T1, Human soluble IL6-R (human, UniProt P08887 20-358).
T1 construct: Bought soluble receptor; biotinylated in some Alphascreen assays; also called sIL6-R; hIL-6R
T1 sequence (looked up): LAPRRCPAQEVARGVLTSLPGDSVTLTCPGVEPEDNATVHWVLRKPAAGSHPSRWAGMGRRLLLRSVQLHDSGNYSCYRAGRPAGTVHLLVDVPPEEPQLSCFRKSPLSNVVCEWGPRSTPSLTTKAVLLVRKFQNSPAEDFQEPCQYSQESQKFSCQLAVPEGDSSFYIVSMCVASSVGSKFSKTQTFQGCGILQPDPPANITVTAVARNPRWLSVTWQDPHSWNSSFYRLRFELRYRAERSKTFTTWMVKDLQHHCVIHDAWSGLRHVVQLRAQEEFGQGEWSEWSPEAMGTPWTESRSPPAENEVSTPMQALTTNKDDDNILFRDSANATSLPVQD
Kind of test: SPR (Biacore), off-rate.

The target in test [2] is T1, Human soluble IL6-R. Put plainly: SPR (Biacore 3000), IL6-R on CM5 chip.

A value given as a limit tells only on which side of the number the result lay.

B1: PMP 33 A2 (VHH)
VHH: EVQLVESGGGLVQPGGSLRLSCAASGFSLDYYAIGWFRQAPGKEREGVSCMDSSGGTTSTYYSDSVKGRFTISRDDAKNTVYLQMNSLKPEDTAVYYCAADGHLNWGQRYVPCSQISWRGWNDYWGQGTQVTVSS
notes: also called PMP33A2(t)
In turn, B1 came in with a koff in test [1] of 0.0005 s⁻¹.

B2: PMP 34 F8 (VHH)
VHH: EVQLVESGGGLVQPGGSLRLSCAASGFSLDYYAIGWFRQAPGKEREGVSCMDSSDGTTNTYYSDSVKGRFTISRDDAKNTVYLQMNSLKPEDTASYYCAADGHLNWGQPYVPCSQISWRGWNDYWGQGTQVTVSS
notes: also called PMP34F8(t)
As to B2, the koff in test [1] came to 0.000142 s⁻¹.

B3: IL6R71 (VHH)
VHH: EVQLVESGGGLVQPGGSLRLSCAASGFTFDDYDIGWFRQAPGKGREGVSGISSSDGNTYYADSVKGRFTISSDNAKNTVYLQMNSLRPEDTAVYYCAAEPPDSSWYLDGSPEFFKYWGQGTLVTVSS
notes: Humanized variant of IL6R04
In test [2], B3 displayed a Kd of 0.22 nM, a dissociation rate constant (koff) of 0.000153 s⁻¹ and an on-rate constant (kon) of 703000 M⁻¹ s⁻¹.

B4: IL6R73 (VHH)
VHH: EVQLVESGGGLVQPGGSLRLSCAASGFTFDDYDIGWFRQAPGKGREGVSGISSSDGNTYYADSVKGRFTISRDNAKNTVYLQMNSLRPEDTAVYYCAAEPPDSSWYLDGSPEFFKYWGQGTLVTVSS
notes: Humanized variant of IL6R04
In test [2], B4 showed a Kd of 0.33 nM, a koff of 0.000233 s⁻¹ and an on-rate (kon) of 698000 M⁻¹ s⁻¹.

B5: IL6R75 (VHH)
VHH: EVQLVESGGGLVQPGGSLRLSCAASGFTFSDYDIGWFRQAPGKGREGVSGISSSDGNTYYADSVKGRFTISRDNAKNTLYLQMNSLRPEDTAVYYCAAEPPDSSWYLDGSPEFFKYWGQGTLVTVSS
notes: Humanized variant of IL6R04
On to B5, for which, in test [2], the Kd was below 0.1 nM, the koff is below 0.0001 s⁻¹ and the kon was 1e+06 M⁻¹ s⁻¹.

B6: IL6R74 (VHH)
VHH: EVQLVESGGGLVQPGGSLRLSCAASGFTFDDYDIGWFRQAPGKGREGVSGISSSDGNTYYADSVKGRFTISSDNAKNTLYLQMNSLRPEDTAVYYCAAEPPDSSWYLDGSPEFFKYWGQGTLVTVSS
notes: Humanized variant of IL6R04
Consider B6, for which, in test [2], the dissociation constant (Kd) stood at 0.16 nM, the koff was found to be 0.000122 s⁻¹ and the on-rate constant (kon) amounted to 767000 M⁻¹ s⁻¹.

B7: PMP 31 C5 (VHH)
VHH: EVQLVESGGGLVQAGGSLRLSCAASGFTFDDYAIGWFRQAPGKEREGVSCISSSDGSTYYADSVKGRFTISSDNAKNTVYLLMNSLKPEDTAVYYCAAEPPDSMWSLDGSPEFFKFWGQGTQVTVSS
notes: also called PMP31C5(t)
In test [1], B7 came in with a koff of 0.000111 s⁻¹.

B8: PMP 31 D2 (VHH)
VHH: EVQLVESGGGLVQAGGSLRLSCAASGFTFDDYAIGWFRQAPGKEREGVSGISSSDGNTYYADSVKGRFTISSDNAKNTVYLQMNSLKPEDTAVYYCAAEPPDSNWYLDGSPEFFKFWGQGTQVTVSS
notes: also called PMP31D2(t)
The molecule B8 showed a koff in test [1] of 0.000281 s⁻¹.

B9: IL6R72 (VHH)
VHH: EVQLVESGGGLVQPGGSLRLSCAASGFTFSDYDIGWFRQAPGKGREGVSGISSSDGNTYYADSVKGRFTISSDNAKNTVYLQMNSLRPEDTAVYYCAAEPPDSSWYLDGSPEFFKYWGQGTLVTVSS
notes: Humanized variant of IL6R04
Turning to B9, in test [2], binding was characterised by a dissociation constant (Kd) of 0.33 nM, the koff was determined as 0.00018 s⁻¹ and the on-rate constant (kon) worked out at 543000 M⁻¹ s⁻¹.

B10: PMP 32 F10 (VHH)
VHH: EVQLVESGGGLVQAGGSLRLSCAASGFTFDDYAIGWFRQAPGKEREGISCISSSDGSTYYADSVKGRFTISSDNAKNTVYLQMNSLKPEDTAVYYCAAEPPDSSWILDGSPEFFKFWGQGTQVTVSS
notes: also called PMP32F10(t)
Turning to B10, the koff in test [1] was found to be 0.00058 s⁻¹.

B11: IL6R61 (VHH)
VHH: EVQLVESGGGLVQPGGSLRLSCAASGSIFKVNAMGWYRQAPGKGRELVAGIISGGSTNYADSVKGRLTISRDNAKNTVYLQMNSLRPEDTAVYYCSFVTTNSDYDLGRDYWGQGTLVTVSS
notes: Humanized variant of IL6R03
For B11, in test [2], the equilibrium dissociation constant (Kd) was determined as 2 nM, the koff is 0.0017 s⁻¹ and the on-rate (kon) was 850000 M⁻¹ s⁻¹.

B12: IL6R64 (VHH)
VHH: EVQLVESGGGLVQPGGSLRLSCAASGSIFKVNAMGWYRQAPGKGRELVAGIISGGSTNYADSVKGRLTISRDNAKNTVYLQMNSLRPEDTAVYYCAFVTTNSDYDLGRDYWGQGTLVTVSS
notes: Humanized variant of IL6R03
As to B12, in test [2], the koff was determined as 0.001 s⁻¹.

B13: IL6R65 (VHH)
VHH: EVQLVESGGGLVQPGGSLRLSCAASGSIFKVNAMGWYRQAPGKGRELVAGIISGGSTNYADSVKGRFTISRDNAKNTLYLQMNSLRPEDTAVYYCAFVTTNSDYDLGRDYWGQGTLVTVSS
notes: Humanized variant of IL6R03
In test [2], B13 returned a Kd of 4 nM, an off-rate constant (koff) of 0.00235 s⁻¹ and a kon of 600000 M⁻¹ s⁻¹.

B14: IL6R62 (VHH)
VHH: EVQLVESGGGLVQPGGSLRLSCAASGSIFKVNAMGWYRQAPGKGRELVAGIISGGSTNYADSVKGRFTISRDNAKNTVYLQMNSLRPEDTAVYYCSFVTTNSDYDLGRDYWGQGTLVTVSS
notes: Humanized variant of IL6R03
In test [2], B14 had an equilibrium dissociation constant (Kd) of 2.22 nM, an off-rate constant (koff) of 0.00207 s⁻¹ and a kon of 929000 M⁻¹ s⁻¹.

B15: IL6R63 (VHH)
VHH: EVQLVESGGGLVQPGGSLRLSCAASGSIFKVNAMGWYRQAPGKGRELVAGIISGGSTNYADSVKGRLTISRDNAKNTLYLQMNSLRPEDTAVYYCSFVTTNSDYDLGRDYWGQGTLVTVSS
notes: Humanized variant of IL6R03
Take B15: in test [2], the Kd is 3.69 nM, the koff was 0.00365 s⁻¹ and the kon stood at 990000 M⁻¹ s⁻¹.

B16: PMP 28 A2 (VHH)
VHH: EVQLVESGGGLVQPGGSLRLSCAASGFTFGSYDMSWVRQAPGKGPEWVSAINSGGGSTYYADSVKGRFTISRDNAKNTLYLQMNSLKPEDTAVYYCATDWRYSDYDLPLPPPGDYWGQGTQVTVSS
notes: also called PMP28A2(t)
As for B16, the off-rate (koff) in test [1] came to 0.00124 s⁻¹.

B17: IL6R81 (VHH)
VHH: EVQLVESGGGLVQPGGSLRLSCAASGFTFDDYGMSWVRQAPGRATEWVSAISWNGNNTYYTESMKGRFTISRDNAKNTVYLQMNSLRPEDTAVYYCVKGSTAIVGVPPTYPDEYDYWGQGTLVTVSS
notes: Humanized variant of IL6R13
As to B17, in test [2], the Kd was determined as 0.4 nM, the koff is 0.000128 s⁻¹ and the kon turned out to be 320000 M⁻¹ s⁻¹.

B18: IL6R86 (VHH)
VHH: EVQLVESGGGLVQPGGSLRLSCAASGFTFDDYGMSWVRQAPGRALEWVSAISWNGNNTYYTESMKGRFTISRDNAKNTLYLQMNSLRPEDTAVYYCVKGSTAIVGVPPTYPDEYDYWGQGTLVTVSS
notes: Humanized variant of IL6R13
In the case of B18, the koff in test [2] worked out at 0.0017 s⁻¹.

B19: IL6R85 (VHH)
VHH: EVQLVESGGGLVQPGGSLRLSCAASGFTFDDYGMSWVRQAPGRGLEWVSAISWNGNNTYYTESMKGRFTISRDNAKNTLYLQMNSLRPEDTAVYYCVKGSTAIVGVPPTYPDEYDYWGQGTLVTVSS
notes: Humanized variant of IL6R13
With B19, the off-rate (koff) in test [2] turned out to be 0.00206 s⁻¹.

B20: IL6R84 (VHH)
VHH: EVQLVESGGGLVQPGGSLRLSCAASGFTFDDYGMSWVRQAPGKGLEWVSAISWNGNNTYYTESMKGRFTISRDNAKNTLYLQMNSLRPEDTAVYYCVKGSTAIVGVPPTYPDEYDYWGQGTLVTVSS
notes: Humanized variant of IL6R13
Take B20: in test [2], the Kd was found to be 5.36 nM, the koff worked out at 0.00409 s⁻¹ and the association rate constant (kon) is 762000 M⁻¹ s⁻¹.

B21: IL6R83 (VHH)
VHH: EVQLVESGGGLVQPGGSLRLSCAASGFTFDDYGMSWVRQAPGRATEWVSAISWNGNNTYYTESMKGRFTISRDNAKNTLYLQMNSLRPEDTAVYYCVKGSTAIVGVPPTYPDEYDYWGQGTLVTVSS
notes: Humanized variant of IL6R13
In test [2], B21 showed a Kd of 0.34 nM, a koff of 0.00012 s⁻¹ and a kon of 350000 M⁻¹ s⁻¹.

B22: IL6R89 (VHH)
VHH: EVQLVESGGGLVQPGGSLRLSCAASGFTFDDYGMSWVRQAPGRGTEWVSAISWNGNNTYYTESMKGRFTISRDNAKNTLYLQMNSLRPEDTAVYYCVKGSTAIVGVPPTYPDEYDYWGQGTLVTVSS
notes: Humanized variant of IL6R13
In turn, B22 showed a koff in test [2] of 0.00019 s⁻¹.

B23: IL6R90 (VHH)
VHH: EVQLVESGGGLVQPGGSLRLSCAASGFTFDDYGMSWVRQAPGKALEWVSAISWNGNNTYYTESMKGRFTISRDNAKNTLYLQMNSLRPEDTAVYYCVKGSTAIVGVPPTYPDEYDYWGQGTLVTVSS
notes: Humanized variant of IL6R13
For B23, the koff in test [2] was determined as 0.00192 s⁻¹.

B24: IL6R82 (VHH)
VHH: EVQLVESGGGLVQPGGSLRLSCAASGFTFDDYGMSWVRQAPGKGLEWVSAISWNGNNTYYTESMKGRFTISRDNAKNTVYLQMNSLRPEDTAVYYCVKGSTAIVGVPPTYPDEYDYWGQGTLVTVSS
notes: Humanized variant of IL6R13
In test [2], B24 came in with an equilibrium dissociation constant (Kd) of 5.07 nM, an off-rate constant (koff) of 0.00314 s⁻¹ and a kon of 619000 M⁻¹ s⁻¹.

B25: PMP 30 A10 (VHH)
VHH: EVQLVESGGGLVQPGGSLRLSCAASGFTFDDYGMSWVRQAPGKGLEWVSAISWNGGSTYYTESMKGRFTISRDNAKNTVYLQMNSLKPEDTAVYYCVKGSTAIVGVPPTYPDEYDYWGQGTQVTVSS
notes: also called PMP30A10(t)
In the case of B25, the koff in test [1] amounted to 0.00268 s⁻¹.

B26: PMP 33 C10 (VHH)
VHH: EVQLVESGGGLVQPGGSLRLSCAASGFTFDDYGMSWVRQAPGKGLEWVSAISWNGGSTYYTESMKGRFTISRDNAKNTVYLQMNSLKPEDTAVYYCVKGSTAIVGVPPTYPDEYDYWGQGTQVTVSS
notes: also called PMP33C10(t)
In the case of B26, the koff in test [1] amounted to 0.00308 s⁻¹.

B27: IL6R87 (VHH)
VHH: EVQLVESGGGLVQPGGSLRLSCAASGFTFDDYGMSWVRQAPGKATEWVSAISWNGNNTYYTESMKGRFTISRDNAKNTLYLQMNSLRPEDTAVYYCVKGSTAIVGVPPTYPDEYDYWGQGTLVTVSS
notes: Humanized variant of IL6R13
For the molecule B27, in test [2], the off-rate (koff) was 0.000105 s⁻¹.
